According to patent US20260258115A1 (MAPP BIOPHARMACEUTICAL, published 2026):
Changes are numbered by the printed parent chain.

B1: ADI-14402 (antibody, V domains shown)
VH: QVQLVQSGAEVKKPGASVKVSCKTSGYTFTNYGISWVRQAPGQGLEWMGWISAYNGNRNYAQKLQGRVTMTTDTSTSTAYMELRSLRSDDTAVYYCAREPPVIAAGDFSHWGQGTLVTVSS
VL: EIVLTQSPLSLPVTLGQPASISCRSSQSLVHSDANTYLSWFQQRPGQSPRRLIYKVSNRDSGVPDRFSGSGSGTDFTLKISRVEAEDVGVYYCMQGTHWPPDFGQGTRLEIK
notes: also called Ab 68
B2: ADI-14583 (antibody, V domains shown)
VH: B1 VH with K13E, T24A, M48L, R58I, N59H, L64V, A79G, Y80F, S109Q
VL: B1 VL with I2T, V3T, D33N, A34G, K55R, V90L
B3: ADI-14585 (antibody, V domains shown)
VH: B1 VH with T24A, T30A, S35G, N57K, R58T, L64F, S109P
VL: B1 VL with I2T, V3T, V30E, A34L, K79R
B4: ADI-14601 (antibody, V domains shown)
VH: EVQLLESGGGLVQPGGSLRLSCAASGFTFSSYAMNWVRQAPGKGLEWVSTISGSGSSTYYADSVEGRFTISRDNSKNTLYLQMNSLRAEDTAIYYCAKEPRDMYIQQWLDSWGQGTLVTVSS
VL: GIRLTQSPSSVSASVGDRVIITCRASQGIRSWLAWYQQKPGKAPKLLIYAASRLQSGVPSRFSGSGSETDFTLTISSLQPEDFASYYCQQANSFPLTFGGGTKVEIK
B5: ADI-14580 (antibody, V domains shown)
VH: QVQLVQSGAEVKKPGSSVKVSCKASGGTFSSYTINWVRQAPGQGLEWMGRIIPVLGMASYVQNFQGRVSITADESTSTAYMELSSLTSEDTALYYCAKGAVAAANDVFDVWGQGTTVTVSS
VL: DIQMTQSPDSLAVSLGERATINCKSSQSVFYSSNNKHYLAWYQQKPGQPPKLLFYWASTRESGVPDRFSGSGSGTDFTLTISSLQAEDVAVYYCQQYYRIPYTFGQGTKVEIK
B6: ADI-14412 (antibody, V domains shown)
VH: QVQLVQSGAEVKKPGASVKVSCKASGYTFTRYGISWVRQAPGQGLEWMGWISDYNGNTKNAEKFQGRVTMTTDTYTNIAYMELRSLRSDDTAVYYCARDWWITVGGIIAPFDYWGQGTLVTVSS
VL: ETTLTQSPGTLSLSPGERATLSCRASQSVSSDYLAWFQQKPGQAPRLLIYGASSRATDIPDRFSGSGSGTDFTLTISRLESEDFAVYYCLHYAGARTFGQGTKVEIK
notes: also called Ab 78
B7: ADI-14588 (antibody, V domains shown)
VH: QVQLVQSGAEVKKPGASVKVSCKVSGDTLTELSIHWVRQAPGKGHEWMGYFDHEDGEIMYAQKFQGRVTMTGDTSTDTAYMELSSLRSEDTAVYYCATVAAAGQFDYWGQGTLVTVSS
VL: DIQLTQSPSSLSASVGDRVTITCRARQSISTYLNWYQQKPGKAPKLLIYAASSLQSGVPSRFSGSGSGTDFTLTISSLQPEDFATYYCQQSYSSPYTFGQGTKVDIK
B8: ADI-14428 (antibody, V domains shown)
VH: EVQLLESGGGLVKPGGSLRLSCAASGFTFSDHYMSWIRQAPGKGLEWVSYISSTSSFTNYADSLKGRFTISRDNAKNSLYLQMNSLRAEDTAVYYCARPYIVALGTRAFDIWGQGTTVTVSS
VL: SYVLTQPPSVSVAPGKTARITCGGNNIGSKTVHWYQQKPGQAPVLVSYYDSDRPSGIPERFSGSNSGNTATLTISRVEAGDEADYYCQVWDGSSEHYVFGTGTKVTVL
notes: also called Ab 94
B9: ADI-14403 (antibody, V domains shown)
VH: QVQLVESGGGLGKPGGSLRLSCAASGFTFSGYYMSWIRQAPGKGLEWVSDISSGSSFTNYADSVKGRFTISRDNAKNSLYLQMNSLKAEDTAVYYCARVPPDSYGSGSYSGDSWGQGTLVTVSS
VL: QSVVTQPPSVSGAPGQRVTISCTGSSSNIGAGYGVHWYQQLPGTAPKLLIYGNTNRPSGVPDRISGSKSGTSASLVITGLQAEDEADYYCQSYDSSLSGWVFGGGTKLTVL
notes: also called Ab 69
B10: ADI-14587 (antibody, V domains shown)
VH: EVQLLESGGGLVKPGGSLRLSCAASGFTLTSYSMNWVRQAPGKGLEWVSSISSSSSYIHYADSVKGRFTISRDNAKNSLYLQMNSLRAEDTAVYYCAGSSLYPPFFDYWGQGTLVTVSS
VL: B9 VL with I29L, G34D, T54N, I64F, V76A, G99S, W100V
B11: ADI-14586 (antibody, V domains shown)
VH: QVQLVQSGGGLVKPGGSLRLSCAASGFTFSDYYMSWIRQAPGKGLEWVSYISSSSSYTNYADSVKGRFTISRDNAKNSLYLQMNSLRAEDTAVYYCAKRTEYCSSTGCAYYFDYWGQGTLVTVSS
VL: B9 VL with G34D, T54S, I64F, V76A, W100S, L108V
B12: ADI-14603 (antibody, V domains shown)
VH: QVQLVQSGAEVKKPGESLKISCKGSGYTFTNYWIGWVRQMPGKGLEWMGIIYPGDSDTRYSPSFQGQVTISADKSITTAYLQWRVLKASDTAMYYCATMRGSSSHFHHWGQGTLVTVSS
VL: DIQVTQSPSSLSASVGDRVTITCRAGQGIGNYLAWYQQKPGKVPKVLIYAASTLQSGVPSRFSGSGSGTEFTLTISSLQPEDVATYYCQKYNNAPYAFGQGTRLEIK
notes: also called Ab 131
B13: ADI-14591 (antibody, V domains shown)
VH: QVQLVQSGAEVKKPGESLRISCTGSGYTFTNYWISWVRQMPGKGLEWMGRIDPTDSYTNYSPSFQGHVTISADKSISTAYLQSSSLKASDTATYYCARHRRLVPAAMSRGYYGMDVWGQGTTVTVSS
VL: EIVMTQSPSSLSASVGDRATITCRASQSISSYLNWYQQKPGKAPKLLIYAASNLQSGAPSRFSGSGSGTDFTLTISSLQPEDFATYFCQQTYSTPYTFGQGTKVEIK
notes: also called Ab 120
B14: ADI-20966 (antibody, V domains shown)
VH: EVQLLESGGGLGKPGGSLRLSCAASGFKLSSYYMHWVRQAPGKGPEWVSSISASSSYINYADSVRGRFTVSRDNAKNSLFLQMNSLRVDDTAIYYCARGAPLTNFGMVLDSWGQGTLVTVSS
VL: QSVLTQPPSVSGAPGQRVTISCTGSGSNIGAGYDVHWYQQVPGRVPKLLIYANNNRPSGVPDRFSGSKSGTSASLAITGLQADDEADYYCQSYDRSLNVVFGGGTKLTVL
B15: ADI-14424 (antibody, V domains shown)
VH: QVQLVQSGAEVKKPGESLKISCKGPDSSFSVYWIAWVRQMPGKGLEWMGVIYVGDSDTRYSPSFRGQVTISADKSMNTAYLQWSSLKASDTAMYFCARHIPPGPFDLWGQGTMVTVSS
VL: NFMLTQPHSVSASPGKTITISCTRSSGSIASNSVQWYQQRPGSAPTNVIYEDDQRPLGVPNRFSGSIDSSSNSASLTISGLKTEDEADYYCHSYHNSDQVFGGGTKLTVL
notes: also called Ab 90
B16: ADI-14582 (antibody, V domains shown)
VH: B15 VH with M76I, M113T
VL: B15 VL with D53N, H92Q, N96S, L107V
B17: ADI-14581 (antibody, V domains shown)
VH: QVQLVQSGAEVKKPGSSVKVSCKASGGTFSSHAFSWVRQAPGQGLEWMGGIIPSLNTANYAQKFQGRVSITADESTGTAYMELSSLRSDDTAVYFCAREVFGYGYYFDYWGQGTLVTVSS
VL: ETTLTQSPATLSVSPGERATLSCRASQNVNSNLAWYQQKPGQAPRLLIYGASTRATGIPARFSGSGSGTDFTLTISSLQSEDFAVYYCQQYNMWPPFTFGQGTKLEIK
notes: also called Ab 110
B18: ADI-14380 (antibody, V domains shown)
VH: QVQLVQSGAEVKKPGESLKISCKGSGYTFTSYWIGWVRQLPGKGLEWMGVIFPGDSDTRYSPSFQGQVTISADKSISTAYLQWSSLKAADTAMYYCARTRLGRGFYRFDSWGQGTLVTVSS
VL: QSVLTQPPSVSAAPGQKVTISCSGSSSNIGNNYVSWYQQLPGTAPRLLIYENNERPSGIPDRFSGSKSGTSATLGITGLQTGDEADYYCATWDSGLSAGYVFGTGTKLTVL
notes: full-length IgG; also called Ab 48
B19: ADI-24798 (antibody, V domains shown)
VH: EVQLLESGPGLVKPSETLSLTCTVSGGSISSYYWSWIRQPPGKGLEWIGYIYYSGSTNYNPSLKSRVTISVDTSKNQFSLKLSSVTAADTAVYYCARILGHCSGGSCYRIIDYWGQGTLVTVSS
VL: not shown
notes: full-length IgG
B20: ADI-25518 (antibody, V domains shown)
VH: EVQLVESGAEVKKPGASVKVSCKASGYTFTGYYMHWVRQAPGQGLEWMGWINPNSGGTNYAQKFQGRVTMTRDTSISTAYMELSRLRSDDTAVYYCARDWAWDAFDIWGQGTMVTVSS
VL: QSVLIQPASVSGSPGQSITISCTGTSSDVGGYNYVSWYQQHPGKAPKLMIYDVSNRPSGVSNRFSGSKSGNTASLTISGLQAEDEADYYCSSYTSSSTLVFGGGTQLTVL
notes: full-length IgG
B21: ADI-22756 (antibody, V domains shown)
VH: EVQLLESGGGVVQPGRSLRLSCVASGFTFSTYGVHWVRQAPGKGLEWVAVISYDGANKDYADSVKGRFTISRDNSKNTLYLQMNSLRAEDTAVYYCAKMITRVLPGGFDRWGQGTLVTVSS
VL: EIVMTQSPGTLSLSPGERATLSCRASQSVSSAYLAWYQQKPGQAPRLLIYDASRRATGIPDRFSGSGSGTDFTLTISRLEPEDFAVYYCQQYGSSRFTFGQGTKVEIK
notes: full-length IgG
B22: ADI-24854 (antibody, V domains shown)
VH: EVQLVESGGGLVKPGGSLRLSCAASGFTFSSYSMNWVRQAPGKGLEWVSSISSSSSYIYYADSVKGRFTISRDNAKNSLYLQMNSLRAEDTAVYYCARDRRFGELFYFDYWGQGTLVTVSS
VL: QSVLTQPPSVSGAPGQRVTISCTGSSSNIGAGYDVHWYQQLPGTAPKLLIYGNSNRPSGVPDRFSGSKSGTSASLAITGLQAEDEADYYCQSYDSSLSGNWVFGGGTKLTVL
notes: full-length IgG
B23: ADI-24841 (antibody, V domains shown)
VH: QVQLVQSGAEVKKPGASVKVSCKASGYTFTSYAMHWVRQAPGQRLEWMGWINAGNGNTKYSQKFQGRVTITRDTSASTAYMELSSLRSEDTAVYYCARDGFPTNYDFWSGYSDDAFDIWGQGTMVTVSS
VL: not shown
notes: full-length IgG
B24: ADI-14363 (antibody, V domains shown)
VH: QVQLVESGGGLVKPGGSLRLSCAASGFTFSDYYMSWIRQAPGKGLEWVSYISGGGTYTKYADSVKGRFTISRDNAKNSVYLQMNSLRAEDTAVYYCARDVALVGWELRYGMDVWGQGTTVTVSS
VL: ETTLTQSPGTLSLSPGERATLSCRARENVNSSYLAWYQQKPGQAPRLLIYGASSRATGIPDRFSGSGSGTDFTLTISRLEPEDFAVYYCQQYAISPWTFGQGTKVEIK
notes: full-length IgG; also called Ab 31
B25: ADI-25491 (antibody, V domains shown)
VH: EVQLLESGPGLVKPSQTLSLTCTVSGGSISSGGYYWSWIRQHPGKGLEWIGYIYYSGSTYYNPSLKSRVTISVDTSKNQFSLKLSSVTAADTAVYYCAREVVPAAIRAGYYFDYWGQGTLVTVSS
VL: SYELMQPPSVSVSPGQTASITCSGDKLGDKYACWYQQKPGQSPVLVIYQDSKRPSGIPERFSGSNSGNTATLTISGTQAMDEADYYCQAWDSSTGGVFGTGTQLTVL
notes: full-length IgG

Target: RSV prefusion F (preF), subtype B (respiratory syncytial virus, subtype B)
Test: BLI, IgG

Binder | Kd
B1 | 0.416 nM
B2 | 1.59 nM
B3 | 0.449 nM
B4 | 1.96 nM
B5 | 4.54 nM
B6 | 13.4 nM
B7 | 1.48 nM
B8 | 14.1 nM
B9 | 0.699 nM
B10 | 0.833 nM
B11 | 6.7 nM
B12 | 30.5 nM
B13 | 0.554 nM
B14 | 0.862 nM
B15 | 1.9 nM
B16 | 1.81 nM
B17 | 2.88 nM

Target: T1, RSV prefusion F (preF), subtype B (respiratory syncytial virus subtype B)
T1 construct: also called Prefusion subtype B
Test: BLI, IgG

Binder | Kd
B18 | 10.8 nM
B19 | 5.27 nM
B20 | 39.5 nM
B21 | 55.8 nM
B22 | 30.3 nM
B23 | 26.6 nM
B24 | 5.35 nM
B25 | 21.9 nM
